From patent US7164008B2, “Isolated complexes of endotoxin and MD-2” (priority 2003, dated 2007)

Biological target: T1, TLR4 (Homo sapiens, UniProt O00206+Q9Y6Y9)
T1 construct: host or cells: HEK293 stably transfected with TLR4 (HEK/TLR4)
Test: Cell association of [^3H]-LOS forms with HEK/TLR4 cells (liquid scintillation)
Assay type: cell-based
Settings: [^3H]-LOS-MD-2 0.75 ng/ml, HEK/TLR4 overnight
Protocol: FIG. 3 depicts delivery of [^3H]-LOS-MD-2 but not [^3H]-LOSagg or [^3H]-LOS-sCD14 to HEK/TLR4. HEK (□) or HEK/TLR4 (▪) cells were incubated with [^3H]-LOS (0.75 ng/ml) in the form of LOSagg, LOS-sCD14, or LOS-MD-2. After overnight incubation at 37° C., cells were washed and lysed as described in Methods. The amount of [^3H]-LOS associated with the cells was measured by liquid scintillation spectroscopy. Results are from one experiment in duplicate, representative of three similar experiments.
FIG. 4 depicts the effects of added MD-2 on activation of HEK/TLR4 by [^3H]-LOS-MD-2 and delivery of [^3H]-LOS-MD-2 to HEK/TLR4. […] After overnight incubation, extracellular accumulation of IL-8 was measured. […] Column fractions were analyzed for [^14C]-LOS by liquid scintillation spectroscopy. […] The amount of radioactivity associated with the cells was determined by liquid scintillation spectroscopy. No radioactivity was associated with parental cells.
HEK or HEK/TLR4 cells were grown to confluency in 6 well plates, washed twice with warm PBS, and [^3H]-LOS aggregates or [^3H]-LOS-protein complexes+/−indicated supplements were incubated overnight at 37° C., 5% CO2, and 95% humidity in DMEM, 0.1% HSA with the supplements indicated in the legends to FIGS. 3 and 4. […] The amount of radioactivity associated with the cells was determined by liquid scintillation spectroscopy. Total recovery of radioactivity was >90%.

T1 sequence (O00206 24-839, one chain of several): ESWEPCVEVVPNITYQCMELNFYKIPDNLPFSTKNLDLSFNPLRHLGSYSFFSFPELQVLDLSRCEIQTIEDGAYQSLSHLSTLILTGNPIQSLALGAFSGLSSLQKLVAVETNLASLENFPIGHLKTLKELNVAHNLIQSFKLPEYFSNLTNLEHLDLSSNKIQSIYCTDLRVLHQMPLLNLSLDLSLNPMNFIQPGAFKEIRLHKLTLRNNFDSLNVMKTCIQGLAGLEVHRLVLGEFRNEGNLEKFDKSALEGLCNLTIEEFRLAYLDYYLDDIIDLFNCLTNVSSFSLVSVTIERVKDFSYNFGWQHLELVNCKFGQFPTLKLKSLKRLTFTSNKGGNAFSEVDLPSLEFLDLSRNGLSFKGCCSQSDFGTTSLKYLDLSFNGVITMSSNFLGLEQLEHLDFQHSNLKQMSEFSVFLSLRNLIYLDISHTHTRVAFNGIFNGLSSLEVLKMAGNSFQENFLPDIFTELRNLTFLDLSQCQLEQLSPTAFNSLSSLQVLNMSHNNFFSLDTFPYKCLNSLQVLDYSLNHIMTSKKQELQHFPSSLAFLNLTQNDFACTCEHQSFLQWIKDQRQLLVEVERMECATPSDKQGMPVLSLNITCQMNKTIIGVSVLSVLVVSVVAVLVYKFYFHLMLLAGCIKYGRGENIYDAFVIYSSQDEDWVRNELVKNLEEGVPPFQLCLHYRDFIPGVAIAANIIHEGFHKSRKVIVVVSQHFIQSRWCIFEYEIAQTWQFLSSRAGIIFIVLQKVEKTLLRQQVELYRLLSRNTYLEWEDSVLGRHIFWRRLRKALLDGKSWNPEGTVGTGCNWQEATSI

B1: wt MD-2: soluble polyhistidine-tagged recombinant wild-type MD-2 in conditioned insect cell culture medium (protein)
chain: QKQYWVCNSSDASISYTYCDKMQYPISINVNPCIELKRSKGLLHIFYIPRRDLKQLYFNLYITVNTMNLPKRKEVICRGSDDDYSFCRALKGETVNTTISFSFKGIKFSKGKYKCVVEAISGSPEEMLFCLEFVILHQPNSNHHHHHH
With B1 the “effect of excess MD-2 on TLR4-dependent cell association of [^3H]-LOS-MD-2” value was “blocked”.
